For data set [1], the target named is RelA (p65), subunit of RelA-p50 heterodimer;p50, subunit of RelA-p50 heterodimer (mouse (murine);mouse (murine), UniProt Q04207;P25799 19-321;39-350, |). Briefly: stopped-flow fluorescence.
In data set [2] the target is RelA (p65) homodimer (UniProt Q04207 19-321). In words: stopped-flow fluorescence.

The values that follow come from article PMC5951767.

Sequence of RelA (p65), subunit of RelA-p50 heterodimer;p50, subunit of RelA-p50 heterodimer (Q04207 19-321, chain 1 of 2): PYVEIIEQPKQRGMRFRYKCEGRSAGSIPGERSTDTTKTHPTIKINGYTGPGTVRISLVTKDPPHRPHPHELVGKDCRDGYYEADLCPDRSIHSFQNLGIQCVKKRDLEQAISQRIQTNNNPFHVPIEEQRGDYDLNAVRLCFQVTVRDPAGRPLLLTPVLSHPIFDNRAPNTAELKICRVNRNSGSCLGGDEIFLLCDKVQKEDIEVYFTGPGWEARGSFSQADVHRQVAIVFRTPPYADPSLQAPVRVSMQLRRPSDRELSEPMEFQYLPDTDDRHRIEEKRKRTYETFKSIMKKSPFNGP
Sequence of RelA (p65), subunit of RelA-p50 heterodimer;p50, subunit of RelA-p50 heterodimer (P25799 39-350, chain 2 of 2): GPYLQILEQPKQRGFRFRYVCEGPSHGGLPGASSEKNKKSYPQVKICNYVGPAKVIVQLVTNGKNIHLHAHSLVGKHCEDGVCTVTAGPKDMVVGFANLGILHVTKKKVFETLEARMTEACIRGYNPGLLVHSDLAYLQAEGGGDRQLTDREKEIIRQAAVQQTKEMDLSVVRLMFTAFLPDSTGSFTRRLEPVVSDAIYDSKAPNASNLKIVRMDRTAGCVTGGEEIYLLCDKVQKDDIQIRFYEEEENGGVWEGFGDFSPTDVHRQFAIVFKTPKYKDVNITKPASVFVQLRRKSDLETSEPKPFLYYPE
Sequence of RelA (p65) homodimer (Q04207 19-321): as the sequence (Q04207 19-321, chain 1 of 2) above

In the case of GGGAAATTCCTCCCCCAGGAATTTCCC (structured_DNA, 5' AmMC6 amino linker) [IFN-kB hairpin], the binding result in data set [1] and in data set [2] was “binds” each time.
